Consider two molecules from PMC4878814, “Mechanism of Human Nucleocytoplasmic Hexosaminidase D” (Biochemistry, 2016).

One data set addresses T1, hexosaminidase D (HexD) (Homo sapiens, UniProt Q8WVB3).
T1 construct: human HexD in pET30a vector, expressed in E. coli BL21(DE3)
T1 sequence (Q8WVB3 1-486): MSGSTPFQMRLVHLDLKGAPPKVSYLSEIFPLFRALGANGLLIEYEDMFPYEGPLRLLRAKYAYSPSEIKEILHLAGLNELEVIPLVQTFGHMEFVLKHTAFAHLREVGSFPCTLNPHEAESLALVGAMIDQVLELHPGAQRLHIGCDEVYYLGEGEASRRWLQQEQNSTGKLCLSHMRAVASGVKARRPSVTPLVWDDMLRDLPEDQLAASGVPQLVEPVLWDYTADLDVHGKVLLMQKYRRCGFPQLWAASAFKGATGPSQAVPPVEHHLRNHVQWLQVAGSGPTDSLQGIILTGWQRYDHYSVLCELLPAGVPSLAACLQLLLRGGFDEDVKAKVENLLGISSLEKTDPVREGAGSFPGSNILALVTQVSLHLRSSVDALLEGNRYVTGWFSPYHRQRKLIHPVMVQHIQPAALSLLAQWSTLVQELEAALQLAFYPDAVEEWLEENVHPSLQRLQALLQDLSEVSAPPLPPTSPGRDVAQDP
The data set is described as follows: inhibition of purified enzyme hydrolysis of PNP-GalNAc, absorbance, Lineweaver-Burk and nonlinear regression. The class given is biochemical.

Another data set addresses T2, murine HexD (Mus musculus, UniProt Q3U4H6).
T2 sequence (Q3U4H6 1-486): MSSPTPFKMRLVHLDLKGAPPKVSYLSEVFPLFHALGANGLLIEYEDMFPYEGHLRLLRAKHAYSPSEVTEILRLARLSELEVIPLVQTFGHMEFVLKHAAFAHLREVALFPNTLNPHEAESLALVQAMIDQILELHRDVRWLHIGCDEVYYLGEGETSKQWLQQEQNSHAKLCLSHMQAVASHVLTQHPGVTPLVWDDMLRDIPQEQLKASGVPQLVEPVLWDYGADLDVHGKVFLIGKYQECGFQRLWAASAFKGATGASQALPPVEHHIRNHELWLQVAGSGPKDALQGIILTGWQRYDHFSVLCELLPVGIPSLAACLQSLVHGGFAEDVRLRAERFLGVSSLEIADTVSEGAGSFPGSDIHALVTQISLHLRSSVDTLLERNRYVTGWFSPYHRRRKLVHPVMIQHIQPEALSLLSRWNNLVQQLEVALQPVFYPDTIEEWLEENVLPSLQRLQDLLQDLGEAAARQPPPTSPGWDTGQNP
The data set is described as follows: enzyme inhibition, preliminary studies (data not shown). The class given is biochemical.

Substrate in data set [1]: CC(=O)N[C@H]1[C@H](Oc2ccc([N+](=O)[O-])cc2)O[C@H](CO)[C@H](O)[C@@H]1O
The data set is described as follows: Michaelis-Menten kinetics of hydrolysis by purified enzyme (KM); hydrolysis also followed by 1H NMR. Type of data set: biochemical, Homo sapiens. Conditions: active site; Asp148 polarizing residue, Glu149 general acid/base.

Substrate in data set [2]: O=C(N[C@H]1[C@H](Oc2ccc([N+](=O)[O-])cc2)O[C@H](CO)[C@H](O)[C@@H]1O)C(F)F
The data set is described as follows: purified protein.

Substrate in data set [3]: CC(=O)N[C@H]1[C@H](Oc2ccc([N+](=O)[O-])c(F)c2)O[C@H](CO)[C@H](O)[C@@H]1O
Kind of data set: purified protein.

Substrate in data set [4]: CC(=O)N[C@H]1[C@H](Oc2ccc([N+](=O)[O-])c(F)c2)O[C@H](CO)[C@@H](O)[C@@H]1O
Kind of data set: purified protein.

Substrate in data set [5]: O=C(CF)N[C@H]1[C@H](Oc2ccc([N+](=O)[O-])cc2)O[C@H](CO)[C@H](O)[C@@H]1O
Kind of data set: purified protein.

Substrate in data set [6]: CC(=O)N[C@H]1[C@H](Oc2ccc([N+](=O)[O-])cc2)O[C@H](CO)[C@@H](O)[C@@H]1O
Kind of data set: purified protein.

Substrate in data set [7]: O=C(N[C@H]1[C@H](Oc2ccc([N+](=O)[O-])cc2)O[C@H](CO)[C@H](O)[C@@H]1O)C(F)(F)F
The data set is described as follows: purified protein.

Take `CC1=N[C@@H]2[C@@H](O)[C@@H](O)[C@@H](CO)O[C@@H]2S1` [compound 4, Gal-NAG-thiazoline]: the Ki (commonly the equilibrium dissociation constant of an inhibitor or competing ligand from its target) was found to be 420 nM on hexosaminidase D (HexD) and 520 nM on murine HexD.

B1: hexosaminidase D (HexD) (Homo sapiens) (protein)
chain: MSGSTPFQMRLVHLDLKGAPPKVSYLSEIFPLFRALGANGLLIEYEDMFPYEGPLRLLRAKYAYSPSEIKEILHLAGLNELEVIPLVQTFGHMEFVLKHTAFAHLREVGSFPCTLNPHEAESLALVGAMIDQVLELHPGAQRLHIGCDEVYYLGEGEASRRWLQQEQNSTGKLCLSHMRAVASGVKARRPSVTPLVWDDMLRDLPEDQLAASGVPQLVEPVLWDYTADLDVHGKVLLMQKYRRCGFPQLWAASAFKGATGPSQAVPPVEHHLRNHVQWLQVAGSGPTDSLQGIILTGWQRYDHYSVLCELLPAGVPSLAACLQLLLRGGFDEDVKAKVENLLGISSLEKTDPVREGAGSFPGSNILALVTQVSLHLRSSVDALLEGNRYVTGWFSPYHRQRKLIHPVMVQHIQPAALSLLAQWSTLVQELEAALQLAFYPDAVEEWLEENVHPSLQRLQALLQDLSEVSAPPLPPTSPGRDVAQDP
notes: human HexD in pET30a vector, expressed in E. coli BL21(DE3)
Turning to B1, the Km – broadly, the concentration of substrate that gives half-maximal velocity – in data set [1] was determined as 72.1 ± 4.8 µM; in “purified protein [2]” it was 102 ± 16 µM; in the data set “purified protein [3]” it was 172 ± 19 µM; in “purified protein [4]”, 852 ± 54 µM; in the data set “purified protein [5]”, 533 ± 17 µM; in “purified protein [6]” it was 607 ± 53 µM. Moreover, the Km in the data set “purified protein [7]” turned out to be 103 ± 27 µM. The kcat (as a rule, the maximal rate divided by the concentration of active sites) was 1.32 ± 0.02 s⁻¹ in data set [1]; 0.27 ± 0.0108 s⁻¹ in “purified protein [2]”; 2.03 ± 0.065 s⁻¹ in the data set “purified protein [3]”; 1.54 ± 0.045 s⁻¹ in “purified protein [4]”; 2.6 ± 0.0317 s⁻¹ in the data set “purified protein [5]”; 0.507 ± 0.0148 s⁻¹ in the data set “purified protein [6]”. Moreover, the kcat in “purified protein [7]” turned out to be 0.042 ± 0.00283 s⁻¹. For the same molecule, the kcat/Km (commonly the second-order rate constant that governs catalysis at low substrate concentration) in data set [1] is 18200 ± 1250 M⁻¹ s⁻¹; in the data set “purified protein [2]”, 2650 ± 417 M⁻¹ s⁻¹; in “purified protein [3]” it was 11800 ± 1350 M⁻¹ s⁻¹; in the data set “purified protein [4]”, 1820 ± 127 M⁻¹ s⁻¹; in “purified protein [5]”, 4980 ± 183 M⁻¹ s⁻¹; in “purified protein [6]”, 835 ± 76.7 M⁻¹ s⁻¹. In “purified protein [7]”, the kcat/Km is 408 ± 108 M⁻¹ s⁻¹.
